From PMC8799719 (2022)
Like-named read-outs stand apart in the source and are kept apart here.

Key:
[1] = molecular target: T1, triple-helical peptide (THP) [(POG)10]3 (synthetic construct, O of each POG triplet, as printed in (POG)10); test: ITC
[2] = molecular target: T1, triple-helical peptide (THP) [(POG)10]3; test: ITC; remark: listed apart in the source

B1: recombinant activator domain of VhaC (domain or fragment)
chain: SAEQAANVCDVEAFTSNSSNDVLNAIKTQGASCVNALFSAESRIQEAAFESGHMYNIAKHTTDLAKAYAGGGSDELEALFLYLRAGYYAEFYNSKVSFLSWVTPAVKEAVDAFVNNANFYENSDPHGKVLSEVIITMDSAGLQHAYLPQVTQWLTRWDSQYAQNWYMRNAVNGVFTILFGGQWNEQFVQTIGNQTELAKALGDFALRSSAIGASDEFMAANAGRELGRLTKYSGSASSTVKSKLTEIFAQYEMYGRGDAIWLGAADTVSYYADCSDY
Q: Which Kd [1] does the source give for B1 here?
A: The Kd was 82.8 µM.

B2: ColG-activator domain (domain or fragment)
chain: YDFEYLNGLSYTELTNLIKNIKWNQINGLFNYSTGSQKFFGDKNRVQAIINALQESGRTYTANDMKGIETFTEVLRAGFYLGYYNDGLSYLNDRNFQDKCIPAMIAIQKNPNFKLGTAVQDEVITSLGKLIGNASANAEVVNNCVPVLKQFRENLNQYAPDYVKGTAVNELIKGIEFDFSGAAYEKDVKTMPWYGKIDPFINELKALGLYGNITSATEWASDVGIYYLSKFGLYSTNRNDIVQSLEKAVDMYKYGKIAFVAMERITWDYD
Q: With B2 as the binder, how does the Kd [2] read?
A: The Kd was 3.28 µM.
